Laboratory results from ChEMBL document CHEMBL1124237, “Linear free energy relationship studies of enzyme active site binding: thymidylate synthase” (J Med Chem, 1988).

Tests used:
[1] = substrate: NC(=O)c1ccc(-c2cn([C@H]3C[C@H](O)[C@@H](COP(=O)(O)O)O3)c(=O)[nH]c2=O)cc1; settings: Lacticaseibacillus casei
Description: (§1) Inhibitory effect against Lactobacillus casei thymidylate synthase

[2] = substrate: N#Cc1ccc(-c2cn([C@H]3C[C@H](O)[C@@H](COP(=O)(O)O)O3)c(=O)[nH]c2=O)cc1; settings: Lacticaseibacillus casei
Description: as §1

[3] = substrate: COC(=O)c1ccc(-c2cn([C@H]3C[C@H](O)[C@@H](COP(=O)(O)O)O3)c(=O)[nH]c2=O)cc1; settings: Lacticaseibacillus casei
Description: as §1

[4] = substrate: O=c1[nH]c(=O)n([C@H]2C[C@H](O)[C@@H](COP(=O)(O)O)O2)cc1-c1ccc(O)cc1; settings: Lacticaseibacillus casei
Description: as §1

[5] = substrate: NC(=O)c1ccc(-c2cn([C@H]3C[C@H](O)[C@@H](COP(=O)(O)O)O3)c(=O)[nH]c2=O)cc1; settings: Homo sapiens
Description: (§2) Inhibitory effect on human lymphoblast (Molt/4F) thymidylate synthase

[6] = substrate: N#Cc1ccc(-c2cn([C@H]3C[C@H](O)[C@@H](COP(=O)(O)O)O3)c(=O)[nH]c2=O)cc1; settings: Homo sapiens
Description: as §2

[7] = substrate: COC(=O)c1ccc(-c2cn([C@H]3C[C@H](O)[C@@H](COP(=O)(O)O)O3)c(=O)[nH]c2=O)cc1; settings: Homo sapiens
Description: as §2

[8] = substrate: O=c1[nH]c(=O)n([C@H]2C[C@H](O)[C@@H](COP(=O)(O)O)O2)cc1-c1ccc(O)cc1; settings: Homo sapiens
Description: as §2

[9] = substrate: NC(=O)c1ccc(-c2cn([C@H]3C[C@H](O)[C@@H](COP(=O)(O)O)O3)c(=O)[nH]c2=O)cc1; settings: Mus musculus
Description: (§3) Inhibitory effect on murine leukemia (L1210) thymidylate synthase

[10] = substrate: N#Cc1ccc(-c2cn([C@H]3C[C@H](O)[C@@H](COP(=O)(O)O)O3)c(=O)[nH]c2=O)cc1; settings: Mus musculus
Description: as §3

[11] = substrate: COC(=O)c1ccc(-c2cn([C@H]3C[C@H](O)[C@@H](COP(=O)(O)O)O3)c(=O)[nH]c2=O)cc1; settings: Mus musculus
Description: as §3

[12] = substrate: O=c1[nH]c(=O)n([C@H]2C[C@H](O)[C@@H](COP(=O)(O)O)O2)cc1-c1ccc(O)cc1; settings: Mus musculus
Description: as §3

B1: Thymidylate synthase (Lactobacillus casei), P00469 (protein)
chain: MLEQPYLDLAKKVLDEGHFKPDRTHTGTYSIFGHQMRFDLSKGFPLLTTKKVPFGLIKSELLWFLHGDTNIRFLLQHRNHIWDEWAFEKWVKSDEYHGPDMTDFGHRSQKDPEFAAVYHEEMAKFDDRVLHDDAFAAKYGDLGLVYGSQWRAWHTSKGDTIDQLGDVIEQIKTHPYSRRLIVSAWNPEDVPTMALPPCHTLYQFYVNDGKLSLQLYQRSADIFLGVPFNIASYALLTHLVAHECGLEVGEFIHTFGDAHLYVNHLDQIKEQLSRTPRPAPTLQLNPDKHDIFDFDMKDIKLLNYDPYPAIKAPVAV
Q: With B1 as the protein, how does the Km [1] read?
A: Its Km is 4.01 µM.

Q: What about the Km [2] of the same protein?
A: Its Km is 4.37 µM.

Q: What about the Km [3] of the same protein?
A: The Km was 4.19 µM.

Q: And the Km [4]?
A: Its Km is 4.8 µM.

B2: Thymidylate synthase (Homo sapiens), P04818 (protein)
chain: MPVAGSELPRRPLPPAAQERDAEPRPPHGELQYLGQIQHILRCGVRKDDRTGTGTLSVFGMQARYSLRDEFPLLTTKRVFWKGVLEELLWFIKGSTNAKELSSKGVKIWDANGSRDFLDSLGFSTREEGDLGPVYGFQWRHFGAEYRDMESDYSGQGVDQLQRVIDTIKTNPDDRRIIMCAWNPRDLPLMALPPCHALCQFYVVNSELSCQLYQRSGDMGLGVPFNIASYALLTYMIAHITGLKPGDFIHTLGDAHIYLNHIEPLKIQLQREPRPFPKLRILRKVEKIDDFKAEDFQIEGYNPHPTIKMEMAV
Q: Which Km [5] does the source give for B2 here?
A: Its Km is 1.48 µM.

Q: What about the Km [6] of the same protein?
A: Its Km is 1.51 µM.

Q: What about the Km [7] of the same protein?
A: Its Km is 1.38 µM.

Q: What about the Km [8] of the same protein?
A: Its Km is 1.54 µM.

B3: Thymidylate synthase (Mus musculus), P07607 (protein)
chain: MLVVGSELQSDAQQLSAEAPRHGELQYLRQVEHILRCGFKKEDRTGTGTLSVFGMQARYSLRDEFPLLTTKRVFWKGVLEELLWFIKGSTNAKELSSKGVRIWDANGSRDFLDSLGFSARQEGDLGPVYGFQWRHFGAEYKDMDSDYSGQGVDQLQKVIDTIKTNPDDRRIIMCAWNPKDLPLMALPPCHALCQFYVVNGELSCQLYQRSGDMGLGVPFNIASYALLTYMIAHITGLQPGDFVHTLGDAHIYLNHIEPLKIQLQREPRPFPKLKILRKVETIDDFKVEDFQIEGYNPHPTIKMEMAV
Q: With B3 as the protein, how does the Km [9] read?
A: The Km was 1.28 µM.

Q: What about the Km [10] of the same protein?
A: Its Km is 1.27 µM.

Q: And the Km [11]?
A: The Km was 1.28 µM.

Q: What about the Km [12] of the same protein?
A: Its Km is 1.28 µM.
